Test [1] concerns the target T1, recombinant human CTGF-Fc protein (Creative Biomart) (human).
T1 construct: Bought; also called human CTGF with a human IgG1 Fc Tag
The test can be described thus: SPR (Biacore). The protocol:
(§1) The binding of exemplary lipocalin muteins to human (Creative Biomart), cynomolgus, rat (R&D Systems) and mouse CTGF (Abbexa) was determined by SPR using a Biacore instrument (Cytiva, formerly GE Healthcare). Some targets were fused to a human IgG1 Fc tag, and captured via the anti-human IgG antibody kit, others were directly immobilized.
(§2) For some measurements, human CTGF with a human IgG1 Fc Tag or rat or murine CTGF without a tag were directly immobilized to a CM5 Chip. The carboxyl groups on the chip were activated using 1-ethyl-3-(3-dimethylaminopropyl)-carbodiimide (EDC) and N-hydroxysuccinimide (NHS). […] Residual non-reacted NHS-esters were blocked by passing a solution of 1 M ethanolamine across the surface. The reference channel was activated/deactivated. For the capture setting, targets with an IgG Fc Tag at 0.25-2.5 μg/mL in HBS-EP+ buffer were captured by the anti-human IgG-Fc antibody at the chip surface for 180 s at a flow rate of 10 μL/min.
(§3) The binding assay was carried out with a contact time of 180 s, a dissociation time of 900-3600 s and a flow rate of 30 μL/min. All measurements were performed at 25° C. […] For the directly immobilized targets, the same regeneration conditions were used. Prior to the protein measurements, three startup cycles were performed for conditioning purposes.
In general terms: In SPR one partner is held on a chip, and binding of the other changes the refractive index at the surface.

The next test concerns the target T2, mouse CTGF (Abbexa) (mouse, UniProt P29268 26-348, limits assumed).
T2 construct: also called Murine CTGF; mCTGF
T2 sequence (looked up): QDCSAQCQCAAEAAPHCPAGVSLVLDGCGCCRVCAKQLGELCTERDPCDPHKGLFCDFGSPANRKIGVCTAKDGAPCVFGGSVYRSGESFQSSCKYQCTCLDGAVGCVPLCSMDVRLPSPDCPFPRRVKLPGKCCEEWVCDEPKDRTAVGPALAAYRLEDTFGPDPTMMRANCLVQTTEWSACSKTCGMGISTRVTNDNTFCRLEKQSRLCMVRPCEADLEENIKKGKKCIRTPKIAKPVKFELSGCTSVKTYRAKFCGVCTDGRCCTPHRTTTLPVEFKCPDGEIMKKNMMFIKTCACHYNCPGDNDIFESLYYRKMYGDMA
The test can be described thus: SPR (Biacore). Here is the method: as §1, §2, §3

T1 sequence (chain, as listed by the source limits assumed): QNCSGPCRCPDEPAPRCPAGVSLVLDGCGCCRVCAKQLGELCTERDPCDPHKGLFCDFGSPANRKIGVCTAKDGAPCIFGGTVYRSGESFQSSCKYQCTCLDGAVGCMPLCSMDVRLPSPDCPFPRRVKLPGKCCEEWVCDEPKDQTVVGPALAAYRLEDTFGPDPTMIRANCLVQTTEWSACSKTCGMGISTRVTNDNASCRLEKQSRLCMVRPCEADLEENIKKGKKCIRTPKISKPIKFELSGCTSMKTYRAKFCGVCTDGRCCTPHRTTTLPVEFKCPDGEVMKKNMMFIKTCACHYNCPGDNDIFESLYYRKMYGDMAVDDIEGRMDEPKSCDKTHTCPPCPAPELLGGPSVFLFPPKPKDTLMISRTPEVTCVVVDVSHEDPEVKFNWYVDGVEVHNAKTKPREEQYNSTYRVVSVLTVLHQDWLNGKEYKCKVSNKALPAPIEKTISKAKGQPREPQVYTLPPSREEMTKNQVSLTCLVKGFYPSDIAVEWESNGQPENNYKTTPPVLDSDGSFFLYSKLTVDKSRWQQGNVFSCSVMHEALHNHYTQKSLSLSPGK

B1: lipocalin mutein of SEQ ID NO: 4 (designed binder)
chain: QDSTSDLIPAPPLSKVPLQQNFQDNQFHGKWYVVGRAGNNRLREDKDPPKMWATIYELKEDKSYDVTHVHFMTKKCRYIIDTFVPGSQPGEFTLGAIKSGPGMTSPLVRIVSTNYNQHAMVFFKWVNQNREWFTITLYGRTKELTSELKENFIRFSKSLGLPENHIVFPVPIDQCIDG
notes: also called optimized lipocalin mutein; hNGAL mutein
Consider B1, for which the binding result in test [1] is “binds”.

B2: lipocalin mutein of SEQ ID NO: 30 (designed binder)
chain: QDSTSDLIPAPPLSKVPLQQNFQDNQFHGKWYVVGWAGNIKLREDKDPFKMSATIYELKEDKSYDVTEVVFEQKKCHYIIKTFVPGSQPGEFTLGDIKSPPGETSSLVRVVSTNYNQHAMVFFKKVFQNREFFWITLYGRTKELTSELKENFIRFSKSLGLPENHIVFPVPIDQCIDG
notes: as for B1
With B2, the binding result in test [1] was “binds”.

B3: lipocalin mutein of SEQ ID NO: 16 (designed binder)
chain: QDSTSDLIPAPPLSKVPLQQNFQDNQFQGKWYVVGLAGNAILRTDKQPAKMFATIYELKEDKSYDVTSVRFEAKSCVYTIKTFVPGSQPGEFTAGNIKSAPGQTSTLVRVVSTNYNQHAMVFFKHVSQNREFFVITLYGRTKELTSELKENFIRFSKSLGLPENHIVFPVPIDQCIDG
notes: also called hNGAL mutein; not shown: C-terminal His-tag
A word on the Kd: it is the concentration at which binding is half-saturated. As usually defined, the koff is the first-order rate constant of dissociation. One may read the kon as the rate constant with which the complex forms. In the test with mouse CTGF (Abbexa), B3 returned a Kd of 0.393 nM, a koff of 6.34e-05 s⁻¹ and a kon of 161000 M⁻¹ s⁻¹. For the same molecule, in test [1], the dissociation constant Kd turned out to be 0.76 nM, the koff came to 7.02e-05 s⁻¹ and the kon was 92300 M⁻¹ s⁻¹.

B4: lipocalin mutein of SEQ ID NO: 11 (designed binder)
chain: QDSTSDLIPAPPLSKVPLQQNFQDNQFQGKWYVVGLAGNAILREDKQPAKMFATIYELKEDKSYDVTSVRFEAKSCSYTSKTFVPGSQPGEFTAGNIKSAPGQTSTLVRVVSTNYNQHAMVFFKHVSQNRETFVITLYGRTKELTSELKENFIRFSKSLGLPENHIVFPVPIDQCIDG
notes: as for B3
Turning to B4, in the test with mouse CTGF (Abbexa), the Kd stood at 1.02 nM, the koff is 8.19e-05 s⁻¹ and the kon amounted to 80100 M⁻¹ s⁻¹. In test [1], the Kd came out at 2.44 nM, the koff was found to be 0.000108 s⁻¹ and the kon was 44400 M⁻¹ s⁻¹.

B5: lipocalin mutein of SEQ ID NO: 13 (designed binder)
chain: QDSTSDLIPAPPLSKVPLQQNFQDNQFQGKWYVVGLAGNAILREDKYPAKMFATIYELKEDKSYDVTSVRFENKSCVYTSKTFVPGSQPGEFTTGNIKSAPGQTSTLVRVVSTNYNQHAMVFFKHVSQNREFFVITLYGRTKELTSELKENFIRFSKSLGLPENHIVFPVPIDQCIDG
notes: as for B3
For B5, in test [1], the Kd stood at 0.049 nM, the dissociation rate constant (koff) is 2.51e-06 s⁻¹ and the kon is 51000 M⁻¹ s⁻¹.

B6: lipocalin mutein of SEQ ID NO: 12 (designed binder)
chain: QDSTSDLIPAPPLSKVPLQQNFQDNQFQGKWYVVGLAGNAILREDKYPAKMFATIYELKEDKSYDVTSVRFENKSCVYTIKTFVPGSQPGEFTTGNIKSAPGQTSTLVRVVSTNYNQHAMVFFKHVSQNREFFVITLYGRTKELTSELKENFIRFSKSLGLPENHIVFPVPIDQCIDG
notes: as for B3
With B6, in the test with mouse CTGF (Abbexa), binding was characterised by a dissociation constant (Kd) of 1.41 nM, the koff came to 0.000128 s⁻¹ and the kon came to 91400 M⁻¹ s⁻¹. In test [1], the Kd is 2.4 nM, the off-rate (koff) worked out at 0.000133 s⁻¹ and the kon is 55600 M⁻¹ s⁻¹.

B7: lipocalin mutein of SEQ ID NO: 14 (designed binder)
chain: QDSTSDLIPAPPLSKVPLQQNFQDNQFQGKWYVVGLAGNAILREDKYPAKMFATIYELKEDKSYDVTSVRFEAKSCIYTIKTFVPGSQPGEFTRGNIKSAPGQTSTLVRVVSTNYNQHAMVFFKHVSQNREIFVITLYGRTKELTSELKENFIRFSKSLGLPENHIVFPVPIDQCIDG
notes: as for B3
Regarding B7, in the test with mouse CTGF (Abbexa), the Kd was determined as 0.369 nM, the koff was 7.03e-05 s⁻¹ and the kon worked out at 190000 M⁻¹ s⁻¹. Moreover, in test [1], the Kd was found to be 0.523 nM, the koff is 5.34e-05 s⁻¹ and the association rate constant (kon) is 102000 M⁻¹ s⁻¹.

B8: lipocalin mutein of SEQ ID NO: 18 (designed binder)
chain: QDSTSDLIPAPPLSKVPLQQNFQDNQFQGKWYVVGIAGNAILRDDKYPAKMFATIYELKEDKSYDVTSVRFENKSCIYTIKTFVPGSQPGEFTHGNIKSHPGQTSTLVRVVSTNYNQHAMVFFKHVSQNREIFVITLYGRTKELTSELKENFIRFSKSLGLPENHIVFPVPIDQCIDG
notes: as for B3
On to B8, for which, in test [1], the dissociation constant (Kd) stood at 0.074 nM, the koff amounted to 3.05e-06 s⁻¹ and the kon stood at 40900 M⁻¹ s⁻¹.

(Values after patent US20240228562A1 (Pieris, published 2024).)
